Measured values from patent US6803501B2 (Monsanto Technology, LLC, priority 2000, dated 2004).
Substitutions are numbered along the chain they refer to. Numbers in names are those of the source.

Assays:
[1] = molecular target: T1, P. hybrida glypS (wt) EPSPS (Petunia hybrida, glyphosate sensitive, wild type) (Petunia hybrida, UniProt P11043); test: kinetic characterization of EPSP synthase (Table 4); assay type: biochemical; details: read-out: apparent Km for PEP; saturating shikimate-3-phosphate
T1 sequence (P11043 73-516): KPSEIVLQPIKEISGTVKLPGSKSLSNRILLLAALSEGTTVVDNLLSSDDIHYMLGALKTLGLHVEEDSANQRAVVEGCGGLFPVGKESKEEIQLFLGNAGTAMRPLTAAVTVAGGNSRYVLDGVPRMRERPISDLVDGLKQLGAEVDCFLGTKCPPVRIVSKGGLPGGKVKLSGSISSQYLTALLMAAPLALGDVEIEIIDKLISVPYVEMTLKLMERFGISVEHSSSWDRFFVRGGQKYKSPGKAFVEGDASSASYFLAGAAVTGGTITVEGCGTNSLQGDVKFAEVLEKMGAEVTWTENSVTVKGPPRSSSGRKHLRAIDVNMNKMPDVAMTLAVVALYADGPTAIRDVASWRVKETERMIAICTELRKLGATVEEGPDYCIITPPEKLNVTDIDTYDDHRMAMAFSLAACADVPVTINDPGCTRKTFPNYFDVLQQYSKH
Experimental: Final sample volumes are approximately 0.5 ml.

[2] = substrate: C=C(OP(=O)(O)O)C(=O)O; test: cells, lysate or membranes named; details: other: saturating shikimate-3-phosphate; 25.0 °C
[3] = substrate: C=C(OP(=O)(O)O)C(=O)O; test: kinetic characterization of EPSP synthase (Table 4); assay type: biochemical, Petunia hybrida; details: other: saturating shikimate-3-phosphate; 25.0 °C
Experimental: Preparation of extracts and radiometric EPSP synthase assays are performed using methods adapted from published procedures (Padgette et al., J. Biol. Chem. 266:22364-22369 (1991). Crown regions are dissected from whole plants, pulverized under liquid nitrogen with a mortar and pestle, then stored at −80° C. prior to extraction. Homogenates are prepared from 0.5 g tissue per sample in 25 ml extraction buffer (100 mM TrisCl, 10% glycerol, 1 mM EDTA, 1 mM benzamidine, 1 mM dithiothreitol, 1 mM 4-(2-aminoethyl)-benzenesulfonyl floride HCl, 0.1 mM leupeptin, pH 7.4) at 4° C. using a model PT3000 Polytron homogenizer (Brinkman Instuments Inc., Westbury, N.Y.). Debris is removed by 0.2 μm filtration, then the resulting supernatant is concentrated and desalted using an Ultrafree-15 centrifugal filtration unit (cat.#UFV2-BGC-10, Millipore Corp., Bedford, Mass.). […] Protein concentrations are determined spectrophotometrically using the Bio-Rad protein assay reagent (cat.#500-0006, Bio-Rad Laboratories, Hercules, Calif.). EPSPS specific activities are determined by assaying 10 μl extract at 25° C. for 5-15 min. […] Reactions are quenched with the addition of 50 μl 9:1 ethanol: 0.1 M acetic acid. […]

[4] = substrate: C=C(OP(=O)(O)O)C(=O)O; test: purified protein, by the assay type; details: other: saturating shikimate-3-phosphate; 25.0 °C

## C=C(OP(=O)(O)O)C(=O)O [PEP, phosphoenolpyruvate]
[1]
  Km: 5 µM

B1: Z. mays glypS (wt) EPSPS (Zea mays, glyphosate sensitive, wild type) (Zea mays) (protein)
chain: AGAEEIVLQPIKEISGTVKLPGSKSLSNRILLLAALSEGTTVVDNLLNSEDVHYMLGALRTLGLSVEADKAAKRAVVVGCGGKFPVEDSKEEVQLFLGNAGTAMRPLTAAVTAAGGNATYVLDGVPRMRERPIGDLVVGLKQLGADVDCFLGTDCPPVRVNGIGGLPGGKVKLSGSISSQYLSALLMAAPLALGDVEIEIIDKLISIPYVEMTLRLMERFGVKAEHSDSWDRFYIKGGQKYKSPKNAYVEGDASSASYFLAGAAITGGTVTVEGCGTTSLQGDVKFAEVLEMMGAKVTWTETSVTVTGPPREPFGRKHLKAIDVNMNKMPDVAMTLAVVALFADGPTAIRDVASWRVKETERMVAIRTELTKLGASVEEGPDYCIITPPEKLNVTAIDTYDDHRMAMAFSLAACAEVPVTIRDPGCTRKTFPDYFDVLSTFVKN
[2]
  Km: 5 µM

B2: P. hybrida EPSPS variant glypR (Pro-Ser) (Petunia x hybrida; P178S) (protein)
chain: T1 sequence (P11043 73-516) with P106S
[3]
  Km: 44 µM

B3: P. hybrida EPSPS variant glypR (Gly-Ala) (Petunia x hybrida; G173A) (protein)
chain: T1 sequence (P11043 73-516) with G101A
[3]
  Km: 200 µM

B4: P. hybrida EPSPS variant glypR (Gly-Ala, Pro-Ser) (Petunia x hybrida; G173A/P178S) (protein)
chain: T1 sequence (P11043 73-516) with G101A, P106S
[3]
  Km: 340 µM

B5: E. indica glypS EPSPS (Eleusine indica, naturally occurring glyphosate sensitive, wild type) (Eleusine indica) (protein)
chain: AGAEEVVLQPIKEISGVVKLPGSKSLSNRILLLSALAEGTTVVDNLLNSEDVHYMLGALKTLGLSVEADKAAKRAVVVGCGGKFPVEKDAKEEVQLFLGNAGTAMRPLTAAVTAAGGNATYVLDGVPRMRERPIGDLVVGLKQLGADVDCFLGTDCPPVRVKGIGGLPGGKVKLSGSISSQYLSALLMAAPLALGDVEIEIIDKLISIPYVEMTLRLMERFGVKAEHSDSWDRFYIKGGQKYKSPKNAYVEGDASSASYFLAGAAITGGTVTVEGCGTTSLQGDVKFAEVLEMMGAKVTWTETSVTVTGPQREPFGRKHLKAIDVNMNKMPDVAMTLAVVALFADGPTAIRDVASWRVKETERMVAIRTELTKLGASVEEGPDYCIITPPEKLNVTAIDTYDDHRMAMAFSLAACADVPVTIRDPGCTRKTFPDYFDVLSTFVKN
[4]
  Km: 5 µM

B6: E. indica glypR (Pro-Ser) EPSPS (Eleusine indica, naturally occurring glyphosate resistant, serine for proline at position 107, SEQ ID NO:7) (Eleusine indica) (protein)
chain: B5 chain with P107S, P382L
[4]
  Km: 7 µM
